{
  "source": "patent US11471509B2",
  "about": "“Compositions and methods relating to myomaker-induced muscle cell fusion” (The Board of Regents of the University of Texas System, priority 2013, dated 2022)",
  "molecules": {"B1": {"name": "Myomaker: muscle-specific membrane protein of 221 residues, expressed from pBabe-X retrovirus (protein, UniProt Q9D1N4 1-221, looked up)", "Protein myomaker": "MGTVVAKLLLPTLSSLAFLPTVSIATKRRFYMEAMVYLFTMFFVAFSHACDGPGLSVLCFMRRDILEYFSIYGTALSMWVSLMALADFDEPQRSTFTMLGVLTIAVRTFHDRWGYGVYSGPIGTATLIIAVKWLKKMKEKKGLYPDKSIYTQQIGPGLCFGALALMLRFFFEEWDYTYVHSFYHCALAMSFVLLLPKVNKKAGNAGAPAKLTFSTLCCTCV"}, "B2": {"name": "Tmem8b: closest relative of Myomaker/Tmem8c, not muscle-specific (protein, UniProt B1AWJ5 1-472, looked up)", "Transmembrane protein 8B": "MNMPQSLGTQPLPPEPPSLGTPIEGSGAIAPTEHCWPVRPTLRNELDTFSVHFYIFFGPSVALPPERPAVFALRLLPVLDSGGVLSLELQLNASSLRQENVTVFGCLTHEVPLSLGDAAVTCSKESLAGFLLSVSATSRVARLRIPFPQTGTWFLTLRSLCGVGPRFVRCRNATAEVRLRTFLSPCVDDCGPYGQCKLLRTHNYLYAACECKAGWRGWGCTDSADALTYGFQLLSTLLLCLSNLMFLPPVVLAIRSRYVLEAAVYTFTMFFSTFYHACDQPGIVVFCIMDYDVLQFCDFLGSLMSVWVTVIAMARLQPVIKQVLYLLGAMLLSMALQLDRHGLWNLLGPSLFALGILATAWTVRSVRRRHCYPPTWRRWLFYLCPGSLIAGSAVLLYAFVETRDNYFYIHSIWHMLIAGSVGFLLPPRAKTDRRVPSGARARGCGYQLCINEQEELGLVGPGGTTVSSICVS"}},
  "key": {"[1]": {"tested_on": "10T1/2 fibroblasts mixed with C2C12 cells", "experiment": "Cell mixing: infected 10T1/2 fibroblasts with C2C12 myoblasts", "type": "cell-based", "method": "WT myoblasts were mixed with either Myomaker+/− or Myomaker−/− myoblasts at equal ratios (approximately 1×10^5 cells per genotype), plated on a well of a laminin coated 12-well plate, and induced to differentiate the next day. 10T1/2 fibroblasts were infected with either GFP- and empty-retrovirus or GFP- and Myomaker-retrovirus for 18 h. After infection, cells were washed multiple times and then trypsinized, and mixed with C2C12 myoblasts at a 1:1 ratio (1×10^5 of each cell type) and plated on one well of a 6 well plate in differentiation media. GFP and myosin expression was analyzed 4 days after differentiation. […]\nEach histological analysis of embryonic skeletal muscle was performed on four samples per genotype. The differentiation index was calculated as the percentage of nuclei in myosin-positive cells. The fusion index was calculated as the percentage of nuclei contained in myosin-positive myotubes. […] To quantitate fusion between WT myoblasts and either Myomaker+/− or Myomaker−/− myoblasts, the inventors calculated the percentage of LacZ+ myotubes containing ≥3 nuclei. To quantitate fusion between fibroblasts and myoblasts, the inventors calculated the percentage of GFP+ myosin+ cells or the percentage of BrdU+ myotube nuclei. For each quantitation, at least 3 independent experiments were performed in duplicate and at least 6 random fields were imaged per sample. […]"}, "[2]": {"tested_on": "C2C12 myoblasts", "experiment": "Retroviral over-expression in C2C12 cells, myoblast fusion", "type": "cell-based", "conditions": "4 days of differentiation"}},
  "data": [
    {"molecule": "B1", "values": [
      {"measurement": "fusion of infected fibroblasts with C2C12 cells", "setting": "[1]; 10T1/2 fibroblasts infected with GFP and Myomaker virus, mixed 1:1 with C2C12, 4 days differentiation", "result": "robustly fused with C2C12 cells"},
      {"measurement": "fusion of fibroblasts in the absence of myoblasts", "setting": "[1]; fibroblasts expressing Myomaker, no myoblasts", "result": "not sufficient to induce fusion of fibroblasts"},
      {"measurement": "myoblast fusion after forced expression", "setting": "[2]", "result": "dramatic increase in fusion"}
    ]},
    {"molecule": "B2", "values": [
      {"measurement": "myoblast fusion after forced expression", "setting": "[2]", "result": "did not promote fusion"}
    ]}
  ]
}
